# How the values were obtained:
# [1] = target: T1, Human IL-17A (human, UniProt Q16552 20-155, limits assumed); test: ELISA, captured DVD-Ig, biotin-human IL-17 titrated
# T1 construct: Biotinylated in the ELISAs; purified recombinant protein in SPR; also called hIL17A; hIL-17
# Description: The following protocol is used to characterize the binding of TNF/IL-17 DVD-Ig proteins to human TNF and IL-17 by enzyme-linked immunosorbent assay (ELISA). An ELISA plate was coated with 50 μl per well of goat anti mouse IgG-Fc at 2 μg/ml, overnight at 4° C. The plate was washed 3 times with PBS/Tween. 50 μl Mab diluted to 1 μg/ml in PBS/0.1% BSA was added to appropriate wells and incubated for 1 hour at room temperature (RT). The plate was washed 3 times with PBS/Tween. 50 μl of serial diluted biotin-human TNF or IL-17 was added to appropriate wells and incubated for 1 hour at RT. The plate was washed 3 times with PBS/Tween. 50 μl of streptavidin-HRP diluted 1:10,000 in PBS/0.1% BSA was added to appropriate wells and incubated for 1 hour at RT. The plate was washed 3 times with PBS/Tween. 50 μl of TMB was added to appropriate wells and the reaction allowed to proceed for 1 minute. The reaction was stopped with 50 μl/well 2N H₂SO₄ and the absorbance read at 450 nm.
# [2] = target: T2, Rhesus TNFa (rhesus, UniProt P48094 77-233); test: SPR (Biacore T200), DVD-Ig captured by anti-human IgG Fc, antigen in solution
# T2 construct: also called Rhesus TNF-alpha
# Description: (§1) The binding of antibodies to purified recombinant IL-17 and TNFα proteins were determined by surface plasmon resonance-based measurements with a Biacore® T200 instrument (GE Healthcare) using running HBS-EP (10 mM HEPES [pH 7.4], 150 mM NaCl, 3 mM EDTA, and 0.005% surfactant P20) containing 0.1 mg/ml BSA at 25° C. All chemicals were obtained from Biacore® AB (GE Healthcare) or otherwise from a different source as described in the text. Approximately 5000 RU of goat anti-human IgG (Fcγ) fragment specific polyclonal antibody (Pierce Biotechnology Inc, Rockford, Ill.) diluted in 10 mM sodium acetate (pH 4.5) was directly immobilized across a CM5 research grade biosensor chip using a standard amine coupling kit according to manufacturer's instructions and procedures at 25 ug/ml. Unreacted moieties on the biosensor surface were blocked with ethanolamine. Modified carboxymethyl dextran surface in flowcell 2, 3 and 4 were used as a reaction surface. Modified carboxymethyl dextran with goat IgG in flow cell 1 was used as the reference surface. For kinetic analysis, rate equations derived from the 1:1 Langmuir binding model were fitted simultaneously to association and dissociation phases of all six injections (using global fit analysis with local float for Rmax) with the use of Biacore T200 Evaluation software v.1.0. Purified antibodies were diluted in HEPES-buffered saline for capture across goat anti-human IgG specific reaction surfaces. Antibodies to be captured as ligand (1-5 μg/ml) were injected over reaction matrices at a flow rate of 50 μl/minute. Association phase was monitored for 5 minutes, while dissociation phase was monitored for 10-60 minutes to accommodate for slower off-rates. The association and dissociation rate constants, ka (unit M-1 s-1) and kd (unit s-1) were determined under a continuous flow rate of 50 μl/minute. Rate constants were derived by making kinetic binding measurements at six different antigen concentrations ranging from 0.78 nM to 100 nM, depending on the species of IL-17 or TNFα tested. The association ka, dissociation rate kd and equilibrium dissociation constant KD were calculated with the use of the same Biacore T200 Evaluation software v.1.0.
# [3] = target: T3, Cynomolgus monkey IL-17A (cynomolgus monkey, UniProt A0A2K5TTB0 24-155); test: as above
# T3 construct: also called Cyno IL-17AA; Cyno IL17AA
# Description: as §1
# [4] = target: T1, Human IL-17A; test: as above
# Description: as §1
# T2 sequence (P48094 77-233 limits assumed): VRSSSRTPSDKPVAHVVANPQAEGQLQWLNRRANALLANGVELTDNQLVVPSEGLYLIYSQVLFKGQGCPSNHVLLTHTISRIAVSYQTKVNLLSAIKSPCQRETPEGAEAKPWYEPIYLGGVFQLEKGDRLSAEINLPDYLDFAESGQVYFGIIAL
# T1 sequence (Q16552 20-155 limits assumed): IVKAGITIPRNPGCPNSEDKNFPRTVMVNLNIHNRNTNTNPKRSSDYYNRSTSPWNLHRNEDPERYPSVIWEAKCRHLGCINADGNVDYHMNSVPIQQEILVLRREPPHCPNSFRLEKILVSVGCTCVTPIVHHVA
# T3 sequence (A0A2K5TTB0 entry or part of it): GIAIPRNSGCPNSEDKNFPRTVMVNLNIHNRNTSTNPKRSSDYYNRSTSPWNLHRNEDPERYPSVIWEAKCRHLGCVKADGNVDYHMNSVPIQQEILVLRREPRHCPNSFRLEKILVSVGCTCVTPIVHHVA
Binder,EC50 [1],Kd [2],koff [2],kon [2],Kd [3],koff [3],kon [3],Kd [4],koff [4],kon [4]
"h10F7-M11-hMAk199-4.4 DVD-Ig wt (bispecific antibody, human IgG1, kappa, DVD-Ig, IL-17 outer / TNF inner domain; wild-type IgG1, kappa; short linkers) heavy: not shown light: DIQMTQSPSSLSASVGDRVTITCRASSGIISYIDWFQQKPGKAPKRLIYATFDLASGVPSRFSGSGSGTDYTLTISSLQPEDFATYYCRQVGSYPETFGQGTKLEIKRTVAAPDIQMTQSPSSLSASVGDRVTITCRASQDIENYLNWYQQKPGKAPKLLIYYTSRLQSGVPSRFSGSGSGTDFTLTISSLQPEDFATYFCQQGNTQPPTFGQGTKLEIKRTVAAPSVFIFPPSDEQLKSGTASVVCLLNNFYPREAKVQWKVDNALQSGNSQESVTEQDSKDSTYSLSSTLTLSKADYEKHKVYACEVTHQGLSSPVTKSFNRGEC",40 pM,–,–,–,–,–,–,–,–,–
"hMAK199-4-h10F7-M11.4 DVD-Ig wt (bispecific antibody, human IgG1, kappa, DVD-Ig; wild-type IgG1 (CG1 Z NONA), kappa; short (SS) linkers; also called HMAK199-4-SS-H10F7-M11 DVD) heavy: not shown light: DIQMTQSPSSLSASVGDRVTITCRASQDIENYLNWYQQKPGKAPKLLIYYTSRLQSGVPSRFSGSGSGTDFTLTISSLQPEDFATYFCQQGNTQPPTFGQGTKLEIKRTVAAPDIQMTQSPSSLSASVGDRVTITCRASSGIISYIDWFQQKPGKAPKRLIYATFDLASGVPSRFSGSGSGTDYTLTISSLQPEDFATYYCRQVGSYPETFGQGTKLEIKRTVAAPSVFIFPPSDEQLKSGTASVVCLLNNFYPREAKVQWKVDNALQSGNSQESVTEQDSKDSTYSLSSTLTLSKADYEKHKVYACEVTHQGLSSPVTKSFNRGEC",> 500 pM,–,–,–,–,–,–,–,–,–
"h10F7-M11-hMAK199-4.8 DVD-Ig wt (bispecific antibody, human IgG1, kappa, DVD-Ig, IL-17 outer / TNF inner domain; wild-type IgG1, kappa; GS10 linkers) heavy: not shown light: DIQMTQSPSSLSASVGDRVTITCRASSGIISYIDWFQQKPGKAPKRLIYATFDLASGVPSRFSGSGSGTDYTLTISSLQPEDFATYYCRQVGSYPETFGQGTKLEIKRGGSGGGGSGDIQMTQSPSSLSASVGDRVTITCRASQDIENYLNWYQQKPGKAPKLLIYYTSRLQSGVPSRFSGSGSGTDFTLTISSLQPEDFATYFCQQGNTQPPTFGQGTKLEIKRTVAAPSVFIFPPSDEQLKSGTASVVCLLNNFYPREAKVQWKVDNALQSGNSQESVTEQDSKDSTYSLSSTLTLSKADYEKHKVYACEVTHQGLSSPVTKSFNRGEC",50 pM,–,–,–,–,–,–,–,–,–
"hMAK195-21-h10F7-M11.8 DVD-Ig wt (bispecific antibody, human IgG1, kappa, DVD-Ig; wild-type IgG1, kappa; GS10 linkers; also called HMAK195-21-h10F7-M11.8 HC DVD wt) heavy: not shown light: DIQMTQSPSSLSASVGDRVTITCRASQLVSSAVAWYQQKPGKAPKLLIYWASARHTGVPSRFSGSGSGTDFTLTISSLQPEDFATYYCQQHYKTPFTFGQGTKLEIKRGGSGGGGSGDIQMTQSPSSLSASVGDRVTITCRASSGIISYIDWFQQKPGKAPKRLIYATFDLASGVPSRFSGSGSGTDYTLTISSLQPEDFATYYCRQVGSYPETFGQGTKLEIKRTVAAPSVFIFPPSDEQLKSGTASVVCLLNNFYPREAKVQWKVDNALQSGNSQESVTEQDSKDSTYSLSSTLTLSKADYEKHKVYACEVTHQGLSSPVTKSFNRGEC",110 pM,31 pM,0.000141 s⁻¹,4.56e+06 M⁻¹ s⁻¹,10.9 pM,2.21e-06 s⁻¹,203000 M⁻¹ s⁻¹,38.6 pM,9.26e-06 s⁻¹,239000 M⁻¹ s⁻¹
"hMAK195-24-h10F7-M11.8 DVD-Ig wt (bispecific antibody, human IgG1, kappa, DVD-Ig; wild-type IgG1, kappa; GS10 linkers; also called HMAK195-24-h10F7-M11.8 HC DVD wt) heavy: not shown light: DIQMTQSPSSLSASVGDRVTITCKASQLVSSAVAWYQQKPGKAPKLLIYWASTLHTGVPSRFSGSGSGTDFTLTISSLQPEDFATYYCQQHYRTPFTFGQGTKLEIKRGGSGGGGSGDIQMTQSPSSLSASVGDRVTITCRASSGIISYIDWFQQKPGKAPKRLIYATFDLASGVPSRFSGSGSGTDYTLTISSLQPEDFATYYCRQVGSYPETFGQGTKLEIKRTVAAPSVFIFPPSDEQLKSGTASVVCLLNNFYPREAKVQWKVDNALQSGNSQESVTEQDSKDSTYSLSSTLTLSKADYEKHKVYACEVTHQGLSSPVTKSFNRGEC",120 pM,75.2 pM,0.00046 s⁻¹,6.12e+06 M⁻¹ s⁻¹,20.1 pM,4.29e-06 s⁻¹,214000 M⁻¹ s⁻¹,36.3 pM,8.48e-06 s⁻¹,233000 M⁻¹ s⁻¹
"hMAK195-24-h10F7-M11.8 DVD-Ig (bispecific antibody, human IgG1, kappa, L234A L235A, DVD-Ig; IgG1 234,235 mut, kappa; GS10 linkers; also called hMAK195-24-GS10-M11 DVD) heavy: not shown light: DIQMTQSPSSLSASVGDRVTITCKASQLVSSAVAWYQQKPGKAPKLLIYWASTLHTGVPSRFSGSGSGTDFTLTISSLQPEDFATYYCQQHYRTPFTFGQGTKLEIKRGGSGGGGSGDIQMTQSPSSLSASVGDRVTITCRASSGIISYIDWFQQKPGKAPKRLIYATFDLASGVPSRFSGSGSGTDYTLTISSLQPEDFATYYCRQVGSYPETFGQGTKLEIKRTVAAPSVFIFPPSDEQLKSGTASVVCLLNNFYPREAKVQWKVDNALQSGNSQESVTEQDSKDSTYSLSSTLTLSKADYEKHKVYACEVTHQGLSSPVTKSFNRGEC",84 pM,71.6 pM,0.000343 s⁻¹,4.78e+06 M⁻¹ s⁻¹,24.1 pM,6.25e-06 s⁻¹,259000 M⁻¹ s⁻¹,42.7 pM,1.07e-05 s⁻¹,251000 M⁻¹ s⁻¹
"hMAK195-21-h10F7-M11.8 DVD-Ig (bispecific antibody, human IgG1, kappa, L234A L235A, DVD-Ig, TNF outer / IL-17 inner domain; IgG1 234,235 mut, kappa; GS10 linkers; also called hMAK195-21-GS10-M11 DVD) heavy: not shown light: DIQMTQSPSSLSASVGDRVTITCRASQLVSSAVAWYQQKPGKAPKLLIYWASARHTGVPSRFSGSGSGTDFTLTISSLQPEDFATYYCQQHYKTPFTFGQGTKLEIKRGGSGGGGSGDIQMTQSPSSLSASVGDRVTITCRASSGIISYIDWFQQKPGKAPKRLIYATFDLASGVPSRFSGSGSGTDYTLTISSLQPEDFATYYCRQVGSYPETFGQGTKLEIKRTVAAPSVFIFPPSDEQLKSGTASVVCLLNNFYPREAKVQWKVDNALQSGNSQESVTEQDSKDSTYSLSSTLTLSKADYEKHKVYACEVTHQGLSSPVTKSFNRGEC",95 pM,25.4 pM,0.000132 s⁻¹,5.21e+06 M⁻¹ s⁻¹,25.3 pM,6.28e-06 s⁻¹,248000 M⁻¹ s⁻¹,43.4 pM,1.05e-05 s⁻¹,242000 M⁻¹ s⁻¹
"hMAK199-4-h10F7-M11.8 DVD-Ig (bispecific antibody, human IgG1, kappa, L234A L235A, DVD-Ig; IgG1 234,235 mut, kappa; GS10 linkers; also called HMAK199-4-GS10-H10F7-M11 DVD) heavy: not shown light: DIQMTQSPSSLSASVGDRVTITCRASQDIENYLNWYQQKPGKAPKLLIYYTSRLQSGVPSRFSGSGSGTDFTLTISSLQPEDFATYFCQQGNTQPPTFGQGTKLEIKRGGSGGGGSGDIQMTQSPSSLSASVGDRVTITCRASSGIISYIDWFQQKPGKAPKRLIYATFDLASGVPSRFSGSGSGTDYTLTISSLQPEDFATYYCRQVGSYPETFGQGTKLEIKRTVAAPSVFIFPPSDEQLKSGTASVVCLLNNFYPREAKVQWKVDNALQSGNSQESVTEQDSKDSTYSLSSTLTLSKADYEKHKVYACEVTHQGLSSPVTKSFNRGEC",130 pM,7.72 pM,2.25e-05 s⁻¹,2.91e+06 M⁻¹ s⁻¹,8.61 pM,2.57e-06 s⁻¹,299000 M⁻¹ s⁻¹,27.1 pM,8.76e-06 s⁻¹,323000 M⁻¹ s⁻¹
"hMAK199-4-h10F7-M11.8 DVD-Ig wt (bispecific antibody, human IgG1, kappa, DVD-Ig; wild-type IgG1, kappa; GS10 linkers; Uncertain; also called HMAK199-4-h10F7-M11.8 HC DVD wt) heavy: not shown light: DIQMTQSPSSLSASVGDRVTITCRASQDIENYLNWYQQKPGKAPKLLIYYTSRLQSGVPSRFSGSGSGTDFTLTISSLQPEDFATYFCQQGNTQPPTFGQGTKLEIKRGGSGGGGSGDIQMTQSPSSLSASVGDRVTITCRASSGIISYIDWFQQKPGKAPKRLIYATFDLASGVPSRFSGSGSGTDYTLTISSLQPEDFATYYCRQVGSYPETFGQGTKLEIKRTVAAPSVFIFPPSDEQLKSGTASVVCLLNNFYPREAKVQWKVDNALQSGNSQESVTEQDSKDSTYSLSSTLTLSKADYEKHKVYACEVTHQGLSSPVTKSFNRGEC",100 pM,8.13 pM,2.48e-05 s⁻¹,3.05e+06 M⁻¹ s⁻¹,11.3 pM,3.15e-06 s⁻¹,278000 M⁻¹ s⁻¹,25.9 pM,–,311000 M⁻¹ s⁻¹

# — US20140161804A1 (AbbVie / Abbott, published 2014)
